± gives the standard deviation of the averaged measurements.

For 79 sequences, switch fluorescence ratio results are on record in the supplement of paper PMC10126150.

The data set relates to ATP. Description: switch fluorescence ratio, 500 uM ATP over buffer (Cy3 cluster intensity, sum of 5 cycles each) (fold (ratio)); higher = stronger signal-on switching upon ATP binding; sequences stand for … in TCGTCGGCAGCGTCAGATGTGTATAAGAGACAGTTTTTTTTTTTTTTTTTTTTTTTTT…TC. To be noted: aptamer strand: ATP DNA aptamer (quencher-CACCTGGGGGAGTATTGCGGAGGAAGG + anchor), 100 nM annealed; ATP concentration: 500 uM. In short, it runs like this:
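Cy3-labelled switching-strand clusters on a modified Illumina MiSeq flow-cell were annealed to 100 nM quencher-labelled ATP aptamer and imaged first in selection buffer, then after 15 min with 500 uM ATP at 22 °C. NaOH stripping and re-annealing separated each of five buffer/ATP cycles, and clusters outside 100-1000 RFU were excluded. The fluorescence ratio sums target-cycle Cy3 intensity over buffer-cycle Cy3 intensity per cluster and averages it per switch-domain sequence.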
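Further: ATP exposure 15 min at 22 °C before imaging.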

On to TTTAAACGGA, for which the switch fluorescence ratio is 1.05 ± 0.081.

With TTTAAAGACC, the switch fluorescence ratio is 0.993 ± 0.022.

TTTAAAGAGT: the switch fluorescence ratio was 0.972 ± 0.022.

Consider TTTAAAGGGT, for which the switch fluorescence ratio is 1.01 ± 0.031.

For the sequence TTTAAATAAC, the switch fluorescence ratio came out at 1.02 ± 0.029.

As for TTTAAATCCT, the switch fluorescence ratio amounted to 1.09 ± 0.013.

Turning to TTTAAATTCG, the switch fluorescence ratio is 1.01 ± 0.014.

In the case of TTTAAATTTA, the switch fluorescence ratio is 1.01 ± 0.028.

For TTTAACCCCC, the switch fluorescence ratio amounted to 1.17 ± 0.24.

Consider TTTAACCGTA, for which the switch fluorescence ratio was 1.02 ± 0.023.

On to TTTAACGCAT, for which the switch fluorescence ratio was found to be 1.24 ± 0.12.

TTTAACTGA: the switch fluorescence ratio was determined as 1.04 ± 0.044.

Consider TTTAACTTAG, for which the switch fluorescence ratio was determined as 1.016 ± 0.0032.

For TTTAAGAAGT, the switch fluorescence ratio stood at 1 ± 0.027.

In the case of TTTAAGAGTG, the switch fluorescence ratio is 0.992 ± 0.0031.

For the sequence TTTAAGCAAG, the switch fluorescence ratio is 1.062 ± 0.0077.

Consider TTTAAGGCGG, for which the switch fluorescence ratio came out at 0.989 ± 0.044.

On to TTTAAGGGTA, for which the switch fluorescence ratio came to 0.994 ± 0.023.

For TTTAAGGGTT, the switch fluorescence ratio was 1.02 ± 0.054.

For TTTAAGGTCG, the switch fluorescence ratio is 1.03 ± 0.082.

Take TTTAAGGTGG: the switch fluorescence ratio was 1.015 ± 0.0046.

As to TTTAAGTCT, the switch fluorescence ratio was found to be 0.984 ± 0.095.

TTTAAGTGGT: the switch fluorescence ratio turned out to be 0.998 ± 0.018.

For TTTAATACTT, the switch fluorescence ratio amounted to 1.03 ± 0.0052.

Turning to TTTAATAGGG, the switch fluorescence ratio worked out at 0.995 ± 0.036.

In the case of TTTAATCGAG, the switch fluorescence ratio is 1.04 ± 0.037.

For TTTAATGAAC, the switch fluorescence ratio stood at 1 ± 0.074.

With TTTAATGAGT, the switch fluorescence ratio came to 1.02 ± 0.024.

Consider TTTAATGCAA, for which the switch fluorescence ratio amounted to 1.05 ± 0.033.

On to TTTAATTAAG, for which the switch fluorescence ratio came out at 0.985 ± 0.055.

With TTTAATTAAT, the switch fluorescence ratio was determined as 0.983 ± 0.023.

Take TTTAATTATT: the switch fluorescence ratio worked out at 1.02 ± 0.0053.

For TTTAATTCTT, the switch fluorescence ratio was found to be 1 ± 0.012.

For TTTAATTGCC, the switch fluorescence ratio came to 0.993 ± 0.081.

For TTTAATTGGC, the switch fluorescence ratio came to 1.17 ± 0.19.

As for TTTAATTGGT, the switch fluorescence ratio stood at 1.02 ± 0.021.

Take TTTAATTGTT: the switch fluorescence ratio was found to be 0.978 ± 0.034.

On to TTTAATTTAG, for which the switch fluorescence ratio came out at 1.02 ± 0.024.

TTTACAAGGT: the switch fluorescence ratio was 1.03 ± 0.014.

As to TTTACAATCG, the switch fluorescence ratio is 0.9899 ± 0.0098.

For TTTACATAAG, the switch fluorescence ratio was determined as 1 ± 0.043.

Consider TTTACCACCT, for which the switch fluorescence ratio amounted to 1.27 ± 0.096.

As for TTTACCCTCC, the switch fluorescence ratio turned out to be 1.21 ± 0.13.

For TTTACCGCTA, the switch fluorescence ratio amounted to 1.94 ± 0.58.

For the sequence TTTACCTAGA, the switch fluorescence ratio came to 0.997 ± 0.025.

Regarding TTTACCTGAG, the switch fluorescence ratio was 1.37 ± 0.025.

Turning to TTTACCTTGC, the switch fluorescence ratio is 2.03 ± 0.19.

Consider TTTACGAAAA, for which the switch fluorescence ratio was 1.12 ± 0.046.

In the case of TTTACGATTG, the switch fluorescence ratio is 1.03 ± 0.029.

As to TTTACGTAAA, the switch fluorescence ratio worked out at 1.08 ± 0.11.

As to TTTACTTCGC, the switch fluorescence ratio stood at 1.54 ± 0.089.

For the sequence TTTAGAGGGG, the switch fluorescence ratio was found to be 1.02 ± 0.024.

In the case of TTTAGATAAT, the switch fluorescence ratio was 1 ± 0.014.

With TTTAGCCCAG, the switch fluorescence ratio is 1.013 ± 0.0024.

Regarding TTTAGCCGGT, the switch fluorescence ratio stood at 0.995 ± 0.012.

Consider TTTAGGACGC, for which the switch fluorescence ratio came out at 1.02 ± 0.022.

On to TTTAGGAGGG, for which the switch fluorescence ratio worked out at 0.997 ± 0.019.

As for TTTAGGATAA, the switch fluorescence ratio is 1.02 ± 0.013.

Turning to TTTAGGATTG, the switch fluorescence ratio turned out to be 0.98 ± 0.034.

On to TTTAGGCAAT, for which the switch fluorescence ratio amounted to 3.43 ± 2.7.

For TTTAGGCCAT, the switch fluorescence ratio was found to be 1.017 ± 0.01.

Regarding TTTAGGCCCC, the switch fluorescence ratio was 0.993 ± 0.044.

For TTTAGGCCGA, the switch fluorescence ratio amounted to 0.99 ± 0.043.

In the case of TTTAGGGAGT, the switch fluorescence ratio turned out to be 0.985 ± 0.015.

In the case of TTTAGGGGAT, the switch fluorescence ratio came out at 1.01 ± 0.038.

On to TTTAGGGGCC, for which the switch fluorescence ratio came out at 0.987 ± 0.021.

Turning to TTTAGGGGGA, the switch fluorescence ratio amounted to 1.01 ± 0.044.

Turning to TTTAGGGTGA, the switch fluorescence ratio came to 1.05 ± 0.028.

For the sequence TTTAGGGTGC, the switch fluorescence ratio amounted to 1.03 ± 0.079.

With TTTAGGGTTT, the switch fluorescence ratio was 1.06 ± 0.19.

As to TTTAGGTGGT, the switch fluorescence ratio was 1.11 ± 0.2.

As for TTTAGTCATT, the switch fluorescence ratio was 0.989 ± 0.04.

Consider TTTAGTCCCC, for which the switch fluorescence ratio is 1.06 ± 0.046.

Consider TTTAGTCGGT, for which the switch fluorescence ratio was 0.9638 ± 0.0056.

Consider TTTAGTGACA, for which the switch fluorescence ratio amounted to 0.9978 ± 0.0036.

On to TTTAGTGCAT, for which the switch fluorescence ratio came out at 1.03 ± 0.034.

Turning to TTTAGTGTAA, the switch fluorescence ratio came to 0.966 ± 0.019.

As to TTTAGTTATT, the switch fluorescence ratio amounted to 0.998 ± 0.017.

Regarding TTTAGTTGCC, the switch fluorescence ratio stood at 0.984 ± 0.058.
